The series relates to C/C=C/C=C/C(=O)CC(=O)SCCNC(C)=O. The series is described as follows: purified protein.

A word on the kcat: it is the maximal rate divided by the concentration of active sites.

As for “LovB (lovastatin nonaketide synthase) (Aspergillus terreus)”, the catalytic constant (kcat) was determined as 3.27 s⁻¹.

The values above are taken from article PMC4906797.
